Literature values in paper PMC6324986.

Molecular target: Bub1 (Homo sapiens) (UniProt O43683)
Chain of UniProt O43683 (O43683 whole entry): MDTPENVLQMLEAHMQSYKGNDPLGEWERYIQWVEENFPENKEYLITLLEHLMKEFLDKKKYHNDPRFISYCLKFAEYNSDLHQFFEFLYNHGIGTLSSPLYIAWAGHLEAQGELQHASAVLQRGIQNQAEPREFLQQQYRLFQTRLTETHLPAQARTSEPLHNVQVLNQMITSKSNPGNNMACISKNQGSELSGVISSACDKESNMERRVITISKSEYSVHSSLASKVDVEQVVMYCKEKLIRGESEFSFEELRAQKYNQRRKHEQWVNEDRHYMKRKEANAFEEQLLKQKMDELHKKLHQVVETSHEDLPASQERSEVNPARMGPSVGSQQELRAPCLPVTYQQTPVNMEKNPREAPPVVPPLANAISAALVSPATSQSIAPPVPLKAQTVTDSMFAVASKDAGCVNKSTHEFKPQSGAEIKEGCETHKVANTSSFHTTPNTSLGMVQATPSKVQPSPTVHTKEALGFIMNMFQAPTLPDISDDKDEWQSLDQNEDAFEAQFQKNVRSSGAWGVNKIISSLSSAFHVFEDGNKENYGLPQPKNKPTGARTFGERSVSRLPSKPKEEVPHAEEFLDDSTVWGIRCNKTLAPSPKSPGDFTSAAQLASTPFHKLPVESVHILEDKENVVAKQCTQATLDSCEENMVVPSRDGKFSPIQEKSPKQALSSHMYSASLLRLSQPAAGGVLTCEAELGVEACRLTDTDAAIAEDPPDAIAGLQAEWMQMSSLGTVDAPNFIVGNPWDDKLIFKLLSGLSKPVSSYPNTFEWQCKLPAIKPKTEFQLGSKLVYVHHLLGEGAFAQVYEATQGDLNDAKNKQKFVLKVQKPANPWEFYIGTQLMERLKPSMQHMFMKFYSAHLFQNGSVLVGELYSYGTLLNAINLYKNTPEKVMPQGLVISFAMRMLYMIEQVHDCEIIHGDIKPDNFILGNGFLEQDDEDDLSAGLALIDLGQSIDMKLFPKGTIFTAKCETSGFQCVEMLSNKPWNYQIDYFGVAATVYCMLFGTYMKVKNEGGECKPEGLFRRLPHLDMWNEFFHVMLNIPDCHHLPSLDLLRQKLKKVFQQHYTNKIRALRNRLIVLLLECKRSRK

Mad1 (from UniProt Q9Y6D9)
Kd: > 3 µM
